{
  "source": "patent US20230406907A1",
  "about": "(SORRENTO THERAPEUTICS, published 2023)",
  "binders": {"B1": {"name": "antibody S1D2 (fully human recombinant monoclonal IgG1, no Fc mutation) (antibody, V domains shown)", "VH": "EVQLVESGGGLIQPGGSLRLSCAASGFTVSSNYMSWVRQAPGKGLEWVSIIYPGGSTNYADSVKGRFTISRDNSRNTLYLQMNSLRAEDTAVYYCARELGYYGMDVWGQGTTVTVSS", "VL": "DIQMTQSPSSVSASVGDRVTITCRASQGISTWLVWYQQKPGKAPNLLIYGASSLQSGVPSRFSGSGSGTDFTLTISSLQPEDFATYYCQQANSFPYTFGQGTKLEIK"}},
  "target": "SARS-CoV-2 S1 subunit (amino acids 16-685 of SEQ ID NO:1, i.e. SEQ ID NO:4) with a carboxy terminal … (SARS-CoV-2, UniProt P0DTC2 16-685)",
  "data": [
    {"binder": "B1", "values": [
      {"measurement": "IC50", "value": 1.87, "unit": "nM"}
    ]}
  ]
}
